Source: the RNAGym collection of RNA variant scans (doi:10.7554/elife.80360)

B1: HDV Ribozyme (parent)
chain: GGCCGGCAUGGUCCCAGCCUCCUCGCUGGCGCCGGCUGGGCAACAUUCCGAGGGGACCGUCCCCUCGGUAAUGGCGAAUGGGACCCA

Variants of: B1
Assay: self-cleavage, relative activity (ratio to wild type); higher = more cleavage; co-transcriptional

Variant	self-cleavage
G2U C14A	0.12
G2C C14A	0.0615
G2C C14U	0.0504
G2C A43C	0.147
G2C G59U	0.0343
G2U C58G	0
G2U C58A	0.0494
G2C C57U	0.073
G2U G59C	0.0323
G2A G17U	0.0432
C3A G38U	0.0471
C3A G38A	0.124
G2U G35C	0.016
G2U G29U	0.0712
G2U C84G	0.0213
C3A C66G	0.508
C3A C66U	0.549
G2U U9A	0.0237
G2C G53C	0.125
G2C A70C	0.0248
C3A U27A	0.306
C3A U27G	0.322
G2A A51G	0.141
G2A C85U	0.115

Variant	self-cleavage
G2C U72G	0.0791
G2C U72C	0.142
G1U G40A	0.426
G1U G40U	0.225
G2U A87G	0.0468
G2C G67C	0.113
G2A C15G	0.0277
C3G A43G	0.125
G2U G39C	0.0125
G2C C22G	0.0875
G2C C22U	0.0567
G2C C22A	0.114
G1U C75G	0.162
G2A C13G	0.0282
G2A C13A	0.0231
G2C G38U	0.0764
C3A C7A	0.044
C3A C7G	0.0223
G1U U27A	0.44
C3A G29A	0.012
G2C A51U	0.0468
G2C A51C	0.0308
G1U C84U	0.389
G2U G6U	0.0621

Variant	self-cleavage
G2C G40C	0.122
G1U C24G	0.447
G1U C24A	0.183
G2A G67C	0.0536
G2A G67U	0.157
C3A C62A	0.511
G1U G67U	0.332
G2U U20A	0.0563
G2U U20C	0
C3A C13U	0.213
C3A C13G	0.0396
G2U C36U	0.0308
G2U C36A	0.366
G2U G53U	0.0256
G2C G6A	0.0839
G2C G6C	0.0386
G1U C48U	0.415
G1U G34U	0.215
G1U G34A	0.298
G1U U79C	0.332
G1U U79A	0.178
C3A C61A	0.596
G1U C61U	0.377
G2C C21G	0.0396

Variant	self-cleavage
G2C C21U	0.0615
C3A U60A	0.611
C3A U9G	0.985
G2C C36G	0.26
G1U C57U	0.428
G1U C57A	0.423
G1U C57G	0.196
G2U C21A	0.0437
G2U C21U	0.0542
G2U C62U	0.0314
G2U A51C	0.0528
G2U C75U	0.021
G2C A45U	0
G2U U72G	0
C3A A56U	0.71
G2C G29C	0.109
G2A C32U	0.194
C3A C22G	0.0631
G2A G28U	0.0364
G2A G28C	0.0415
C3A A70G	0.686
G1U G68A	0.496
G1U U37C	0.415
G2U A78G	0.089

Variant	self-cleavage
C3A G35C	0.604
G2A U23G	0.0886
G2A U23A	0.219
G2A U23C	0.0511
G1U C36A	0.158
C3A G82A	0.0811
C3A G76A	0.783
G2A C36G	0.0764
G2A C36U	0.537
G2U C3A	0.0484
G2U G73U	0.0361
G1U G50U	0.466
G1U C19U	0.28
C3A G73A	0.152
C3A G73C	0.0755
G2U C15A	0.0231
G2U G81C	0.0779
G2U G82U	0.0171
C3G A83G	0.289
C3A C75G	0.0308
G1U C85G	0.383
C3A G54U	0.453
G2C C15A	0.0297
G2C C15G	0

Variant	self-cleavage
G2A U20C	0.0536
G1U C64A	0.453
G1U C64G	0.432
G2A G35C	0.0326
G2C U65G	0.0264
G2U A42C	0.0297
C3G C7U	0.226
C3G C7G	0.0244
C3A C32A	0.0545
C3A A51U	0.599
G1U G73U	0.422
G1U G73C	0.231
G2C C66U	0.0373
G2A A43G	0.0234
G2C G81C	0.0583
G2C G81U	0.0203
C3A C36G	0.0608
G2C U46C	0.0475
C3A G81U	0.107
G2A G80A	0.0735
G2A G80C	0.0378
G2U C32G	0
G2U C61U	0.103
C3G A56G	0.692

Variant	self-cleavage
C3G A56C	0.681
G2A C19U	0
C3A A78C	0.0785
C3A A78G	0.119
C3A G52C	0.676
C3A G52A	0.699
G2C A83U	0.0791
G2C G82C	0.0272
G2A G29A	0.0288
G1U G6C	0.656
C3G A42C	0.128
G2A C3G	0.123
C3A G5C	0.0339
G2A A56U	0.115
G2A A56C	0.148
G2A G74U	0.073
G2A G74C	0.0811
G1U U60G	0.443
C3G A8G	0.767
C3G A8U	0.376
G1U C44U	0.252
C3A G39C	0.0196
G2C C3U	0.102
